Results: US7232659

What was measured:
[1] = target: FPR-GFP fusion protein (human; Aequorea victoria), P21462; experiment: flow cytometry, LRG assembly of 30 nM FPR-GFP on αβγ DCNi beads, ligand varied (FIG. 13B)
[2] = target: FPR-GFP fusion protein (human; Aequorea victoria), P21462; experiment: Kd from competition on wild type FPR divided by EC50 of LRG assembly with FPR-GFP
[3] = target: T1, formyl peptide receptor (FPR), wild type, detergent-solubilized (human), P21462; experiment: spectrofluorimetric competition with L^F for solubilized FPR, IC50 converted to Kd
T1 chain: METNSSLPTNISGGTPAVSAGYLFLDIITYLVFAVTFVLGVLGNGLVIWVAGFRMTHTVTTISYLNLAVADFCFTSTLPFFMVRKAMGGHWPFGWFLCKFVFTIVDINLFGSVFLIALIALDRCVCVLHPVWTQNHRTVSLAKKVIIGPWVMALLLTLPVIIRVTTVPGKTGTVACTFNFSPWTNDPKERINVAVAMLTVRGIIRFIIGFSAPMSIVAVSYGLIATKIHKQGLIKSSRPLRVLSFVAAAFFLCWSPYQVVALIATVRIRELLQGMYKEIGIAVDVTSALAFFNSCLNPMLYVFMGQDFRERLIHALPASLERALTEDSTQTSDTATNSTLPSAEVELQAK

EC50 [1]: 27 nM | ratio of Kd (for LR) to EC50 (for LRG formation) [2]: 2.8 | Kd [3]: 75 nM
Binder: MLFF (modifications not checked) [fMLFF]
